{
  "source": "patent US20050164311A1",
  "about": "“Biological assay detection method” (priority 2001, published 2005)",
  "key": {"[1]": {"biological_target": "T1, Protein phosphatase 2A1 (PP2A1) (Homo sapiens, UniProt P67775)", "T1 construct": "purchased Biomol Research Laboratories (Plymouth Meeting, Pa.)", "T1 sequence (P63151 whole entry)": "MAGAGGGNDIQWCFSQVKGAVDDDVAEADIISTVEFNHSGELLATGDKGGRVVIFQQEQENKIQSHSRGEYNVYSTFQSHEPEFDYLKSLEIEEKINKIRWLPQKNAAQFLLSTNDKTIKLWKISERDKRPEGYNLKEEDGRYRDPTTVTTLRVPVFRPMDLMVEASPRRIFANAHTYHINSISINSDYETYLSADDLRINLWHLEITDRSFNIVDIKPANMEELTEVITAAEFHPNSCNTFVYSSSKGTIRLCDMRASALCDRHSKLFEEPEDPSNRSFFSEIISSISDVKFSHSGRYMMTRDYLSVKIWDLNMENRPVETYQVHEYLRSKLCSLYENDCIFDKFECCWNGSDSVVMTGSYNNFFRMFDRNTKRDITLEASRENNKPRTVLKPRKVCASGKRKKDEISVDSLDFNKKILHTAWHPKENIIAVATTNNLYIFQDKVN", "T1 sequence (P30153 whole entry, further chain)": "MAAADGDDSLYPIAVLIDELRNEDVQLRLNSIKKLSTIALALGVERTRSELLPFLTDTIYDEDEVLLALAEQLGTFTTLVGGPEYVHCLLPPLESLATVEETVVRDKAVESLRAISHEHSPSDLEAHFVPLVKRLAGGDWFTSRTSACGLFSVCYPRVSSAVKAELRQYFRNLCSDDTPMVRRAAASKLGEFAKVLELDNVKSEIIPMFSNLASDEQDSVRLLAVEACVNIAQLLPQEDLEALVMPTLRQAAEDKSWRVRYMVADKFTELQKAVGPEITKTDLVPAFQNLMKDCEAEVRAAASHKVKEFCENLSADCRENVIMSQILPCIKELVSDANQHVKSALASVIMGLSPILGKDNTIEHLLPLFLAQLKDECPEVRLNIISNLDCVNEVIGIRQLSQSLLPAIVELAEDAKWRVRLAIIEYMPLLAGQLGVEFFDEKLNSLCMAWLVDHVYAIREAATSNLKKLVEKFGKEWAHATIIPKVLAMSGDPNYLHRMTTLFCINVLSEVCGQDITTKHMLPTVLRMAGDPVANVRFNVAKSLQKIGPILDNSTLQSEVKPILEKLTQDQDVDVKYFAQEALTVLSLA", "T1 sequence (P67775 whole entry)": "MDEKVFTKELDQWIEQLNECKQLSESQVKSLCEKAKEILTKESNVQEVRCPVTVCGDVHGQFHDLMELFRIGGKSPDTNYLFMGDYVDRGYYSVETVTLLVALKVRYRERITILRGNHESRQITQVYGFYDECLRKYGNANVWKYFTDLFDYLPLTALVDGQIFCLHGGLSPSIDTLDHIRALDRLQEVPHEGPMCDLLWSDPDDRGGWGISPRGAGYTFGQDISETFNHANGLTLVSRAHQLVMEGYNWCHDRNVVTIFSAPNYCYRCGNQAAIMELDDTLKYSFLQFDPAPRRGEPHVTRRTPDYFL", "assay": "Protein phosphatase assay, TR-FRET detection with [Eu3+]GST-PDZ, inhibition experiments", "format": "biochemical", "conditions": "PP2A1 15 pM; substrate biotin-HRRAARYLEpSAV-OH; quenched after 60 min; condition Dilution", "experimental": "(§1) Assays were carried out in 96-well black, low binding, Microfluor2 plates (Dynex, Va.). Assay plates were read using a Victor^2V microplate analyzer (Perkin Elmer Wallac (Turku, Finland)), with 337 nm excitation. Fluorescence emission was measured at 665 nm for FRET signal and 615 nm for Eu^3+ chelate, and results are expressed as the ratio of fluorescence intensities, FI665nm/FI615 nm.\nFor the initial time courses, 20 μl of biotin-HRRAARYLEpSAV-OH (SEQ. ID No. 4) (100 nM in phosphatase buffer: 50 mM Tris, pH 7.4, 10% glycerol, 14 mM β-mercaptoethanol, 0.2 mg/ml BSA) was mixed with 20 μl of PP2A1 (2× in phosphatase buffer), and the reaction solution was incubated at 32° C. At different time points, 40 μl aliquots were quenched with […] of a 5×TR-FRET mixture of Cantharidic Acid (5 μM, [Eu^3+]GST-PDZ (1.6 nM), and [665]SA (15.6 nM) in PBSTB, for 60 min, at 25° C., and read.\nFor the inhibition experiments, 2 μl of inhibitor were added to 20 μl PP2A1 (30 pM in phosphatase buffer), and the reaction was initiated by addition of 20 μl of peptide substrate (100 nM in phosphatase buffer). The reaction was quenched after 60 min with the addition of 10 μl of 5×TR-FRET quenching/detection mixture, as described above. Background was measured from a reaction mixture with substrate, detection mixture and no enzyme."}, "[2]": {"biological_target": "T2, Porcine carboxypeptidase B (CPB) (Sus scrofa, UniProt P09955)", "T2 construct": "purchased Sigma (St. Louis, Mo.)", "T2 sequence (P09955 111-416)": "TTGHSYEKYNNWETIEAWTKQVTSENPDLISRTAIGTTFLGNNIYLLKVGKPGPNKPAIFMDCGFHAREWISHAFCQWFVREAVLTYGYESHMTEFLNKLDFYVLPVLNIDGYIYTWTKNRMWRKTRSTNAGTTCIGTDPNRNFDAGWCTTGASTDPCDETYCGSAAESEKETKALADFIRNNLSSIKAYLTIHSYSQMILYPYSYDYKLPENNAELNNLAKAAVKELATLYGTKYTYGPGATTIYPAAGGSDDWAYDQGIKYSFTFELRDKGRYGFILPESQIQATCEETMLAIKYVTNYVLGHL", "assay": "Carboxypeptidase B assay, TR-FRET detection with [Eu3+]GST-PDZ, inhibition experiments", "format": "biochemical", "conditions": "CPB 100 pM; substrate biotin-HRRSARYLESSVR-OH; quenched after 30 min; condition Dilution", "experimental": "as §1\nFor the initial time courses, 20 μl of biotin-HRRSARYLESSVR-OH (SEQ. ID No. 7), (100 nM in 10 mM phosphate, 150 mM NaCl, 0.05% tween-20, 0.1% BSA (PBSTB)) was mixed with 20 μl of CPB (2× in PBSTB), and the reaction quenched with 10 μl of a 5×TR-FET mixture of PCI (1 μM, [Eu^3+]GST-PDZ (6.25 nM), and [X1665]SA (62.5 nM) in PBSTB, for 60 min, at 25° C., and read.\nFor the inhibition experiments, 2 Ill of inhibitor was added to 20 μl CPB (200 pM in PBSTB), and the reaction was initiated by addition of 20 μl peptide substrate (100 nM in PBSTB). The reaction was quenched after 30 min with the addition of 10 μl of 5×TR-FRET quenching/detection mixture, as described above. Background was measured from a reaction mixture with substrate, detection mixture and no enzyme."}, "[3]": {"biological_target": "Biotin-…-OH", "assay": "TR-FRET, 4 nM product peptide plus 36 nM masked substrate biotin-…-NH2 (Asp-N pair); data not shown"}, "[4]": {"biological_target": "Biotin-…-OH", "assay": "TR-FRET, 4 nM product peptide plus 36 nM masked substrate biotin-…-OH (carboxypeptidase B pair); data not shown"}, "[5]": {"biological_target": "Biotin-…-OH", "assay": "TR-FRET, 4 nM product peptide plus 36 nM masked substrate biotin-…pSAV-OH; optimal [Eu3+]GST-PDZ 0.3 nM and [XL665]SA 3.1 nM"}, "[6]": {"biological_target": "Porcine carboxypeptidase B (porcine) (UniProt P09955)", "assay": "cell-based or functional assay"}},
  "data": [
    {"molecule": "CC1(C(=O)O)C2CCC(O2)C1(C)C(=O)O", "note": "(stereo not shown) [Cantharidic Acid, cantharidic acid]", "values": [
      {"measurement": "IC50", "setting": "[1]", "result": 56, "unit": "nM"}
    ]},
    {"molecule": "C=C1[C@@H](O)[C@@H]2O[C@]3(CC[C@H](/C=C/[C@@H](C)[C@@H]4CC(C)=C[C@@]5(O[C@H](C[C@@](C)(O)C(=O)O)CC[C@H]5O)O4)O3)CC[C@H]2O[C@@H]1[C@@H](O)C[C@H](C)[C@H]1O[C@@]2(CCCCO2)CC[C@H]1C", "note": "[Okadaic Acid, okadaic acid]", "values": [
      {"measurement": "IC50", "setting": "[1]", "result": 0.015, "unit": "nM"}
    ]},
    {"molecule": "PCI: potato carboxypeptidase inhibitor from Sigma; the abbreviation list calls it protein carboxypeptidase inhibitor (QQHADPICNKPCKTHDDCSGAWFCQACWNSARTCGPYVG)", "values": [
      {"measurement": "IC50", "setting": "[2]", "result": 10, "unit": "nM"}
    ]},
    {"molecule": "[Eu3+]GST-PDZ (GST fused to PDZ module 3 of PSD-95, labeled with Eu3+ chelate ITC) (from UniProt P31016 300-402)", "values": [
      {"measurement": "signal-to-background", "setting": "[3]", "result": "> 10", "unit": "fold"},
      {"measurement": "signal-to-background", "setting": "[4]", "result": "> 10", "unit": "fold"},
      {"measurement": "signal-to-background", "setting": "[5]", "result": "> 10", "unit": "fold"}
    ]},
    {"molecule": "potato carboxypeptidase inhibitor (from UniProt P01075 1-39)", "values": [
      {"measurement": "IC50 (inhibition of CPB hydrolysis of biotin-…-OH, TR-FRET read-out)", "setting": "[6]", "result": 10, "unit": "nM"}
    ]}
  ]
}
